Data from patent publication US20220218805A1 (UNIVERSITY OF BRITISH COLUMBIA, published 2022).
Ends that are not written are not given here.

Experiments:
[1] = target: T1, (3,2) cyclo(CGGGKLDFGG) (SEQ ID NO: 16) conjugated to BSA (not fully specified (residue 1); printed as cyclo(CGGGKLDFGG); also: conjugated to BSA (maleimide coupling)); assay: indirect ELISA, hybridoma supernatant on cyclic peptide-BSA
T1 construct: Screening antigen of the ELISA; also called KLDF (3,2); cyclic peptide-BSA
T1 peptide: cyclo(CGGGKLDFGG)
Description: (§1) Tissue culture supernatants from the hybridomas were tested by indirect ELISA on screening antigen (cyclic peptide-BSA and linear peptide-BSA) and were probed for both IgG and IgM antibodies using a Goat anti-IgG/IgM(H&L)-HRP secondary antibody and developed with TMB substrate.

tau oligomers (SynAging) [2] = target: T2, tau oligomers (SynAging) (UniProt P10636-8 1-441, limits assumed); assay: SPR, hybridoma supernatant over immobilized tau oligomers
T2 construct: also called misfolded oligomeric tau polypeptide
T2 sequence (P10636 other isoform, or with tags, fused parts or gaps limits assumed): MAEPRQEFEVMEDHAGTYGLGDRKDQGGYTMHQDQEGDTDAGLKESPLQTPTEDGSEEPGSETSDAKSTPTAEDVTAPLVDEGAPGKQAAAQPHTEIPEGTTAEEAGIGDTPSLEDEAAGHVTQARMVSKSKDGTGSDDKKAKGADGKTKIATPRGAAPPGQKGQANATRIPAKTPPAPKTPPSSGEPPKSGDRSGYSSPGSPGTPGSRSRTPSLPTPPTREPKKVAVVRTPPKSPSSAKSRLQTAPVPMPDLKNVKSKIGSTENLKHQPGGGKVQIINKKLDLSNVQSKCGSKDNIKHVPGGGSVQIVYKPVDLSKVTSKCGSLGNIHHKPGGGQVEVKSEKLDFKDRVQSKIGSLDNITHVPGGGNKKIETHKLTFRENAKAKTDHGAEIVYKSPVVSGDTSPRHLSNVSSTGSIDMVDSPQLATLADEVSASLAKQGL
Description: (§2) Antibodies were tested for their ability to bind monomeric tau polypeptide as well as misfolded oligomeric tau polypeptide using surface plasmon resonance. Surface plasmon resonance measurements were performed using a Molecular Affinity Screening System (Sierra Sensors, Hamburg, Germany). Tau monomers (Stressmarq, Victoria, BC, Canada) or tau oligomers (SynAging, Vandoeuvre-les-Nancy, France) were immobilized on high amine capacity sensorchips and hybridoma supernatants (50% dilution) were injected over the immobilized surfaces at 10 μl/minute for 4 min followed by a 5 min dissociation phase. Mouse IgG1 was used as a negative control and a pan-tau reactive antibody was used as a positive control. The reverse orientation was used for purified antibodies: the mAbs were immobilized covalently on the surface of sensorchips (8000-12000 RUs) and serial dilutions of tau monomers or oligomers were injected over the surface.

[3] = target: T3, Linear CGGGKLDFGG (SEQ ID NO: 16) conjugated to BSA (also: conjugated to BSA); assay: indirect ELISA, hybridoma supernatant on linear peptide-BSA
T3 construct: Screening antigen of the ELISA; also called corresponding linear peptide (3,2); linear peptide-BSA
T3 peptide: CGGGKLDFGG
Description: as §1

[4] = target: T4, tau monomers (Stressmarq) (UniProt P10636-8 1-441, limits assumed); assay: SPR, hybridoma supernatant over immobilized tau monomers
T4 construct: also called monomeric tau polypeptide
T4 sequence (P10636 other isoform, or with tags, fused parts or gaps limits assumed): as above
Description: as §2

tau oligomers (SynAging) [5] = target: T2, tau oligomers (SynAging); assay: SPR, oligomer RU / monomer RU (reference: tau monomers)
Description: as §2

[6] = target: T5, (3,1) cyclo(CGGGKLDFG) (SEQ ID NO: 15) conjugated to BSA (not fully specified (residue 1); printed as cyclo(CGGGKLDFG); also: conjugated to BSA (maleimide coupling)); assay: indirect ELISA, hybridoma supernatant on cyclic peptide-BSA
T5 construct: Screening antigen of the ELISA; also called KLDF (3,1); cyclic peptide-BSA
T5 peptide: cyclo(CGGGKLDFG)
Description: as §1

[7] = target: T6, (4,1) cyclo(CGGGGKLDFG) (SEQ ID NO: 19) conjugated to BSA (not fully specified (residue 1); printed as cyclo(CGGGGKLDFG); also: conjugated to BSA (maleimide coupling)); assay: indirect ELISA on other cyclic peptide-BSA conjugates
T6 construct: Screening antigen of the ELISA; also called KLDF (4,1); cyclic peptide-BSA
T6 peptide: cyclo(CGGGGKLDFG)

[8] = target: T1, (3,2) cyclo(CGGGKLDFGG) (SEQ ID NO: 16) …; assay: as above
[9] = target: T7, Linear CGGGKLDFG (SEQ ID NO: 15) conjugated to BSA (also: conjugated to BSA); assay: indirect ELISA, hybridoma supernatant on linear peptide-BSA
T7 construct: Screening antigen of the ELISA; also called corresponding linear peptide (3,1); linear peptide-BSA
T7 peptide: CGGGKLDFG
Description: as §1

[10] = target: T6, (4,1) cyclo(CGGGGKLDFG) (SEQ ID NO: 19) …; assay: indirect ELISA, hybridoma supernatant on cyclic peptide-BSA
Description: as §1

[11] = target: T8, Linear CGGGGKLDFG (SEQ ID NO: 19) conjugated to BSA (also: conjugated to BSA); assay: indirect ELISA, hybridoma supernatant on linear peptide-BSA
T8 construct: Screening antigen of the ELISA; also called corresponding linear peptide (4,1); linear peptide-BSA
T8 peptide: CGGGGKLDFG
Description: as §1

Binder | OD [1] [OD] | binding response (RU) (tau oligomers (SynAging) [2]) | OD [3] [OD] | binding response (RU) [4] [RU] | Ratio (O/M) (tau oligomers (SynAging) [5]) | OD [6] [OD] | binding result [7] | binding result [8] | OD [9] [OD] | OD [10] [OD] | OD [11] [OD]
Ab14 (clone 10D4) (antibody, V domains shown, tested as hybridoma supernatant; kappa light chain) VH: DVQLQESGPGLVKPSQSLSLTCTVTGFSITSDYAWNWIRQFPGNKLEWMGFIRYSGNTRFNPSLKGRGSITRDTSKNQFFLQLNSVTTEDTATYYCASTLEDSYWYFDVWGAGTTVTVSS VL: DVLMTQTPLSLPVSLGDQASISCRSSQSIVHTNGNTYLEWYLQKPGQSPKLLIYKVSNRFSGVPDRFSGSGSGTDFTLKISRVEAEDLGVYYCFQGSHVPLTFGAGTKLELK | 1.7 | 18 | 0.788 | 6.9 | 2.6 |  |  |  |  |  | 
Ab11 (clone 9E4) (antibody, V domains shown, kappa light chain; The clone name 9E4 is also printed for Ab27; also called 9E4.1) VH: DVQVQESGPGLVKPSQSLSLTCTVTGYSITSDYAWTWIRQFPGNKLEWMGYISYSGSTSYNPSLKSRLSITRDTSKNQFFLQLNSVTTEDTATYYCAAYYRYGLAYFAYWGQGTLVTVSA VL: not shown | 1.64 | 17 | 0.232 | 6.5 | 2.6 |  |  |  |  |  | 
Ab29 (clone 12D11) (antibody, V domains shown, tested as hybridoma supernatant; kappa light chain) VH: QIQLVQSGPELKKPGETVKISCKASGYTFTNYGMNWVKQAPGKGLKWMGWINTYSGEPTYVDDFKGRFAFSLETSASTAYLQINNLKNEDMATYFCARSPGAYYTLDYWGQGTSVTVSS VL: DIVMSQSPSSLAVSAGEKVTMSCKSSQSLLNSRTRKNYLAWYQQKPGQSPKLLIYWASTRESGVPDRFTGSGSGTDFTLTISSVQAEDLAVYYCKQSYNLYTFGGGTKLEIK |  | 6.2 |  | 3 | 2.1 | 1.35 | no binding | no binding |  |  | 
Ab23 (clone 8E11) (antibody, V domains shown, kappa light chain; also called 8E11.1) VH: QVQLQQSGAELVRPGSSVKISCKASGYAFSSYWMNWVKQRPGQGLEWIGQIYPGDGDTNYNGKFKGKATLTADKSSSTAYMQLSSLTSEDSAVYLCASQIYDGYYTFTYWGQGTLVTVSA VL: DIVMSQSPSSLAVSAGEKVTMSCKSSQSLLNSRTRKNYLAWYQQKPGQSPKLLIYWASTRVSGVPDRFTGSGSGTDFTLTISSVQAEDLAVYYCKQSYNLWTFGGGTKLEIK |  | 10.2 |  | 4.6 | 2.2 | 1.19 |  |  | 1.69 |  | 
Ab12 (clone 10B10) (antibody, V domains shown, tested as hybridoma supernatant; kappa light chain; also called 10B10.1) VH: QIQLVQSGPELKKPGETVKISCKASGYTFTNFGMNWVKQAPGKGLKWMGWINTFTGEPTYVDDFKGRFAFSLETSATTAYLQINNLKNEDTATYFCARSPGRVYTLDYWGQGTSVTVSS VL: DIVMSQSPSSLAVSAGEKVTMSCKSSQSLLNSRTRKNYLAWYQQKPGQSPKLLIYWASTRESGVPDRFTGSGSGTDFTLTISSVQAEDLAVYYCKQSYNLYTFGGGTKLEIK | 1.74 | 14.5 | 0.784 | 5 | 2.9 |  |  |  |  |  | 
Ab10 (clone 9D12) (antibody, V domains shown, kappa light chain) VH: QIQLVQSGPELKKPGETVKISCKASGYTFTNYGMNWVKQAPGKGLKWMGWINTYTGEPTYTDDFKGRFAFSLETSASTAYLQINNLKNEDTATYFCGRGIRDYYTMDYWGQGTSVTVSS VL: DIVMSQSPSSLAVSAGEKVTMSCKSSQSLLNNRTRKNYLAWYQQKPGQSPKLLIYWASTRESGVPDRFTGSGSGTDFTLTISSVQAEDLAVYYCKQSYNLYTFGGGTKLEIK | 1.6 | 14 | 0.78 | 5.2 | 2.7 |  |  |  |  |  | 
Ab13 (clone 10C9) (antibody, V domains shown, tested as hybridoma supernatant; kappa light chain) VH: EVQLQQSGTVLARPGASVKMSCKASGYRFTSYWMYWVKQRPGQGLEWIGAIYPGNSDTIYNQRFKGKATLTAVTSASTAYMELSSLANEDSAVYFCTRPYFDSWGQGTTLTVSS VL: not shown | 1.29 | 14.7 |  | 4.8 | 3.1 |  |  |  |  |  | 
Ab15 (clone 10D9) (antibody, V domains shown, tested as hybridoma supernatant; kappa light chain) VH: QVQLQQSGAELVKPGASVKLSCKASGYTFTSYYMFWVKQRPGQGLEWIGEINPSNGGSNFNEKFKSKATLTVDKSSSTAYMQLSSLTSEDSAVYYCTRGAFWGQGTLVTVSA VL: not shown | 1.58 | 10.9 | 0.774 | 3 | 3.7 |  |  |  |  |  | 
Ab3 (clone 2C7) (antibody, V domains shown, tested as hybridoma supernatant; kappa light chain) VH: QVTLKESGPGILKPSQTLSLTCSFSGFSLSTSGMGVGWIRQPSGKGLEWLAHIWWDDDKYYNPSLKNRLTISKDTSRNQVFLKITSVDTADTATYYCVRSIYYYDSSPYYYVMDYWGQGTSVTVSS VL: DIVMTQSHKFMSTSVGDRVSITCKASQDVSIAVAWYQQKPGQSPKLLIYSASYRNTGVPDRFTGSGSGTDFTFTISSVQAEDLAVYYCQQHYSSPLTFGAGTKLELK |  | 269 |  | 201 | 1.3 |  |  |  |  | 1.79 | 1.61
Ab21 (clone 2C6) (antibody, V domains shown, tested as hybridoma supernatant; kappa light chain; also called 2C6.1) VH: EVQLQQSGAELVKPGASVKLSCTASGFNIKDTHMHWVKQRPEQGLEWIGKIDPSNGNTQYDPKFQGKATITADTSSNTAYLQLSSLTSEDTAVYYCATGFAYWGQGTLVTVSA VL: DIQMTQSPASLSASVGETVTITCRASGNIHNYLAWYQQKQGKSPQLLVYNAKTLADGVPSRFSGSGSGTQYSLKINSLQPEDFGSYYCQHFWYTPWTFGGGTKLEIK |  | 6.6 |  | 3.5 | 1.9 | 1.21 |  |  |  |  | 
